According to PMC3592575:

Molecular target: α-synuclein (α-syn) (UniProt P37840)
Assay: self-assembly into fibrils: ThT, monomer filtration, TEM
Conditions: reference: unphosphorylated WT α-syn (semisynthetic and recombinant); sites Y125

binding against the reference: same
Substance: α-synuclein (α-syn) (from UniProt P37840) semisynthetic pY125 α-syn
